From paper PMC6555819, “Comprehensive study of nuclear receptor DNA binding provides a revised framework for understanding receptor specificity” come the findings set out here.

Positions count from the first letter of the chain named.

B1: NRC3_wobSeed39_DR1_G4C_o1 (dsDNA)
DNA 1: GCCCAACTAGGTCAAAGGACAGTGAAAGGCGACGTAGCGATTGACAGCGTAGAATGAAGG
DNA 2: CCTTCATTCTACGCTGTCAATCGCTACGTCGCCTTTCACTGTCCTTTGACCTAGTTGGGC
B2: NRC3_random_hg19_374_o1 (dsDNA)
DNA 1: GCTAGACTGGCGACTGCTTGATTCATGGCTGAGTCTGCGATTGACAGCGTAGAATGAAGG
DNA 2: CCTTCATTCTACGCTGTCAATCGCAGACTCAGCCATGAATCAAGCAGTCGCCAGTCTAGC
B3: NRC3_random_hg19_315_o1 (dsDNA)
DNA 1: GCAGTCACACCTAACTGCAGGGAAGTCTATGAAATGGCGATTGACAGCGTAGAATGAAGG
DNA 2: CCTTCATTCTACGCTGTCAATCGCCATTTCATAGACTTCCCTGCAGTTAGGTGTGACTGC
B4: NRC3_wobSeed136_DR5_T8G_o1 (dsDNA)
DNA 1: GCTAGCCGAGGTCATTCAGGGGCCAGTATAGAAAGCGCGATTGACAGCGTAGAATGAAGG
DNA 2: CCTTCATTCTACGCTGTCAATCGCGCTTTCTATACTGGCCCCTGAATGACCTCGGCTAGC
B5: NRC3_random_hg19_149_o1 (dsDNA)
DNA 1: GCATGAAACCATGCTCGAGTGTGTGTGTGTGTGTATGCGATTGACAGCGTAGAATGAAGG
DNA 2: CCTTCATTCTACGCTGTCAATCGCATACACACACACACACACTCGAGCATGGTTTCATGC
B6: NRC3_wobSeed39_DR1_A16G_o1 (dsDNA)
DNA 1: B1 DNA 1 with C4G, A16G
DNA 2: B1 DNA 2 with T45C, G57C
B7: NRC3_wobSeed16_DR0_C7A_o1 (dsDNA)
DNA 1: GCCAGCATAGGTCAGGGCCAGTATAGGAGGAACGTTGCGATTGACAGCGTAGAATGAAGG
DNA 2: CCTTCATTCTACGCTGTCAATCGCAACGTTCCTCCTATACTGGCCCTGACCTATGCTGGC
B8: NRC3_wobSeed4_DR0_C7G_o1 (dsDNA)
DNA 1: GCCCTAGTGGGCCAAGGTCATTGATCAGTCAAAGCAGCGATTGACAGCGTAGAATGAAGG
DNA 2: CCTTCATTCTACGCTGTCAATCGCTGCTTTGACTGATCAATGACCTTGGCCCACTAGGGC
B9: NRC3_wobSeed110_DR4_A15T_o1 (dsDNA)
DNA 1: GCTCTGCTAGGTCATCGATGGTCAGCTAATCTGCTAGCGATTGACAGCGTAGAATGAAGG
DNA 2: CCTTCATTCTACGCTGTCAATCGCTAGCAGATTAGCTGACCATCGATGACCTAGCAGAGC
B10: NRC3_wobSeed110_DR4_C26T_o1 (dsDNA)
DNA 1: B9 DNA 1 with T15A, C26T
DNA 2: B9 DNA 2 with G35A, A46T
B11: NRC3_wobSeed28_DR1_A14T_o1 (dsDNA)
DNA 1: GCCCTACTGGGCCTAAGGTCATTGATTCCAATGCTCGCGATTGACAGCGTAGAATGAAGG
DNA 2: CCTTCATTCTACGCTGTCAATCGCGAGCATTGGAATCAATGACCTTAGGCCCAGTAGGGC
B12: NRC3_wobSeed12_DR0_T19C_o1 (dsDNA)
DNA 1: GCCCGACTGGGGCAAGGTCACCATAACGCACAGCCAGCGATTGACAGCGTAGAATGAAGG
DNA 2: CCTTCATTCTACGCTGTCAATCGCTGGCTGTGCGTTATGGTGACCTTGCCCCAGTCGGGC
B13: NRC3_wobSeed99_DR4_G16C_o1 (dsDNA)
DNA 1: GCTCTCGGAGGACACCAAAGGTCAGAGCTCGACATCGCGATTGACAGCGTAGAATGAAGG
DNA 2: CCTTCATTCTACGCTGTCAATCGCGATGTCGAGCTCTGACCTTTGGTGTCCTCCGAGAGC
B14: NRC3_wobSeed99_DR4_G16T_o1 (dsDNA)
DNA 1: B13 DNA 1 with C16T
DNA 2: B13 DNA 2 with G45A
B15: NRC3_wobSeed137_DR5_A5T_o1 (dsDNA)
DNA 1: GCATTTGTAGGTTACATCCGGGTCATTCAGGCTATGGCGATTGACAGCGTAGAATGAAGG
DNA 2: CCTTCATTCTACGCTGTCAATCGCCATAGCCTGAATGACCCGGATGTAACCTACAAATGC
B16: NRC3_random_hg19_241_o1 (dsDNA)
DNA 1: GCTGTAACGTGGGCTTCACTGTCGGGTCCAGCCCACGCGATTGACAGCGTAGAATGAAGG
DNA 2: CCTTCATTCTACGCTGTCAATCGCGTGGGCTGGACCCGACAGTGAAGCCCACGTTACAGC
B17: NRC3_wobSeed71_DR2_G12T_o1 (dsDNA)
DNA 1: GCCGAACGAGGTCATGAGTTGATAGCAAATGCCGATGCGATTGACAGCGTAGAATGAAGG
DNA 2: CCTTCATTCTACGCTGTCAATCGCATCGGCATTTGCTATCAACTCATGACCTCGTTCGGC
B18: NRC3_wobSeed44_DR1_G17T_o1 (dsDNA)
DNA 1: GCTGAATGAGGTTAAATATCAGGGAACGTGGCGTCGGCGATTGACAGCGTAGAATGAAGG
DNA 2: CCTTCATTCTACGCTGTCAATCGCCGACGCCACGTTCCCTGATATTTAACCTCATTCAGC
B19: NRC3_wobSeed17_DR0_T21G_o1 (dsDNA)
DNA 1: GCATATGTAGGTTAGGGTCAGTCAGAAAGTAGGGAAGCGATTGACAGCGTAGAATGAAGG
DNA 2: CCTTCATTCTACGCTGTCAATCGCTTCCCTACTTTCTGACTGACCCTAACCTACATATGC
B20: NRC3_wobSeed14_DR0_T23G_o1 (dsDNA)
DNA 1: GCCCTGCTAGGTCATGGTCAGCGAATCTACAGTATGGCGATTGACAGCGTAGAATGAAGG
DNA 2: CCTTCATTCTACGCTGTCAATCGCCATACTGTAGATTCGCTGACCATGACCTAGCAGGGC
B21: NRC3_wobSeed76_DR3_T5A_o1 (dsDNA)
DNA 1: GCCCAACTGGGCCAAAAAGGTCATTGATGCCGATAAGCGATTGACAGCGTAGAATGAAGG
DNA 2: CCTTCATTCTACGCTGTCAATCGCTTATCGGCATCAATGACCTTTTTGGCCCAGTTGGGC
B22: NRC3_wobSeed76_DR3_A17G_o1 (dsDNA)
DNA 1: B21 DNA 1 with A5T, A17G
DNA 2: B21 DNA 2 with T44C, T56A
B23: NRC3_wobSeed76_DR3_G20T_o1 (dsDNA)
DNA 1: B21 DNA 1 with A5T, G20T
DNA 2: B21 DNA 2 with C41A, T56A
B24: NRC3_wobSeed136_DR5_G11T_o1 (dsDNA)
DNA 1: B4 DNA 1 with G8T, G11T
DNA 2: B4 DNA 2 with C50A, C53A
B25: NRC3_wobSeed66_DR2_T16G_o1 (dsDNA)
DNA 1: GCAATACAGGGTCACGAGGCCAGAGTAGGTACGAATGCGATTGACAGCGTAGAATGAAGG
DNA 2: CCTTCATTCTACGCTGTCAATCGCATTCGTACCTACTCTGGCCTCGTGACCCTGTATTGC
B26: NRC3_wobSeed27_DR1_A9T_o1 (dsDNA)
DNA 1: GCACTCGGTGGACAAAGGTCAGAGCTACGCCAGTGAGCGATTGACAGCGTAGAATGAAGG
DNA 2: CCTTCATTCTACGCTGTCAATCGCTCACTGGCGTAGCTCTGACCTTTGTCCACCGAGTGC
B27: NRC3_wobSeed97_DR4_A26C_o1 (dsDNA)
DNA 1: GCCAAACTAGGTCACGAAAGGTCAACGTCGAATGACGCGATTGACAGCGTAGAATGAAGG
DNA 2: CCTTCATTCTACGCTGTCAATCGCGTCATTCGACGTTGACCTTTCGTGACCTAGTTTGGC

Sequence of PPARa:RXRa (Q07869 whole entry, chain 1 of 2): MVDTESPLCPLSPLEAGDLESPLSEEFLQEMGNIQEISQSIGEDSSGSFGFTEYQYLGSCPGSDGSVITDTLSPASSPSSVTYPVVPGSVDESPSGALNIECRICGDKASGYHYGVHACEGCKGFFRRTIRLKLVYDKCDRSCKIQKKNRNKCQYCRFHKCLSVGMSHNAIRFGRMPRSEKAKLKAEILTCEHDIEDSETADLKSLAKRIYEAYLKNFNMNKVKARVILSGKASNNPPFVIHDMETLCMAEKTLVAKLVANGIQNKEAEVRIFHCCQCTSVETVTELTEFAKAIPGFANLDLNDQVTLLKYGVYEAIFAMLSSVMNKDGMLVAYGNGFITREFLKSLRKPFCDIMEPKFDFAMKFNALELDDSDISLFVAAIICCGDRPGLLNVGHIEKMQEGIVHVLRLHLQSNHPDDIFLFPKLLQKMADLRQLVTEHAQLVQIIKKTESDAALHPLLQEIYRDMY
Sequence of PPARa:RXRa (P19793 whole entry, chain 2 of 2): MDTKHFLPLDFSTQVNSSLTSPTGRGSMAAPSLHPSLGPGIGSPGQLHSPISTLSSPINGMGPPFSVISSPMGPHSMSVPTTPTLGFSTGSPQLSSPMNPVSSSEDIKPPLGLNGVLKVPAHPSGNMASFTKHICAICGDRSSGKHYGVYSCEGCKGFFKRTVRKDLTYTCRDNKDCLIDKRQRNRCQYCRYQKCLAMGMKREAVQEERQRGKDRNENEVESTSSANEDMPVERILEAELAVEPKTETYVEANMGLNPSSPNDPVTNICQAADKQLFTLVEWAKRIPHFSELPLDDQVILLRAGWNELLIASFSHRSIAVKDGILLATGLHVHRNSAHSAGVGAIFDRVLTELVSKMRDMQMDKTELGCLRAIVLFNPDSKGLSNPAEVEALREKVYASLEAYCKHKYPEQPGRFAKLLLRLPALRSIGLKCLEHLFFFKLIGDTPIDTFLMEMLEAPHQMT
Sequence of RARg:RXRa (P13631 whole entry, chain 1 of 2): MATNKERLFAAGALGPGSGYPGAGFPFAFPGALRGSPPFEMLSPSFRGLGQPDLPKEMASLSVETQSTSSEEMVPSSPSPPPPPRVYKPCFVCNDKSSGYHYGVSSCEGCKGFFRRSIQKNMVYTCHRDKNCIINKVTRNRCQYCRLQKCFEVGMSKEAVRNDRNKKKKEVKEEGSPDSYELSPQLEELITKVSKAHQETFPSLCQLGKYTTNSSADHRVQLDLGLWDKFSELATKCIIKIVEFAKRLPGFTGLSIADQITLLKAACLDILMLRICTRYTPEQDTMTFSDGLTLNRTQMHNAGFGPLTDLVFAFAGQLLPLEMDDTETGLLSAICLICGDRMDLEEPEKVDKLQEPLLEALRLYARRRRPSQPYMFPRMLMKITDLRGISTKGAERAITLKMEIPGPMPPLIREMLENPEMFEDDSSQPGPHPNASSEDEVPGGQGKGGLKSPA
Sequence of RARg:RXRa (P19793 whole entry, chain 2 of 2): as the sequence (P19793 whole entry, chain 2 of 2) above
Sequence of FXR:RXRa (Q96RI1 whole entry, chain 1 of 2): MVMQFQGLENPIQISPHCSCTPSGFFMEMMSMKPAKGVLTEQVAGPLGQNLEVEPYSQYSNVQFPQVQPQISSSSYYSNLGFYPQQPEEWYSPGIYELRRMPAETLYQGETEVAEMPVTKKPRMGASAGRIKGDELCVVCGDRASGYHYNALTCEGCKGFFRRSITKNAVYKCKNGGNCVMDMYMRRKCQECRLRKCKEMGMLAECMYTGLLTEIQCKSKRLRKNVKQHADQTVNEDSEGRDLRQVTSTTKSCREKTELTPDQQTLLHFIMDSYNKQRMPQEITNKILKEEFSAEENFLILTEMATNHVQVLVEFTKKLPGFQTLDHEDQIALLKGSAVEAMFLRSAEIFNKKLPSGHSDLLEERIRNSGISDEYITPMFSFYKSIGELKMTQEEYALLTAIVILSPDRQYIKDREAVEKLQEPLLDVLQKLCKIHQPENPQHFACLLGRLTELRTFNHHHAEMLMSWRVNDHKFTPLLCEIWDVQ
Sequence of FXR:RXRa (P19793 whole entry, chain 2 of 2): as the sequence (P19793 whole entry, chain 2 of 2) above

The target in one series is RARg:RXRa (Homo sapiens, UniProt P13631;P19793 full;full). The series can be described thus: no ligand; PBM; 270 nM : 90 nM RXRa; PBS pH 7.4, 2% milk, 0.02% Triton X-100, 1 mM DTT, BSA, 0.4 mg/ml salmon testes DNA. To be noted: tags: His kept;His cleaved; copies: 1;1; label: surface-attached array probe. Put shortly:
(§1)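 Random background probes are the reference for binding z-scores. These scores derive from regression-normalized fluorescence on custom Agilent 4×180K protein-binding microarrays incubated 1 h with ligand-free nuclear receptor dimers. Binding was detected with antibodies against each partner (one per run).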
B1: the binding signal was 3.99 PBM z-score against 500 random probes.
On to B2, for which the binding signal is -0.21 PBM z-score against 500 random probes.
Still for that read-out and setting: under B3 stands -0.2 PBM z-score against 500 random probes.
As to B4, the binding signal is 7.94 PBM z-score against 500 random probes.
Still for that read-out and setting: as for B5, the figure is -0.37 PBM z-score against 500 random probes.

The target of a further series is FXR:RXRa (Homo sapiens, UniProt Q96RI1;P19793 full;full). The series is described as above. To be noted: tags: His kept;His cleaved; copies: 1;1; label: surface-attached array probe. Put shortly:
as §1
For the molecule B1, the binding signal is 3.67 PBM z-score against 500 random probes.
Still for that read-out and setting: as for B6, the figure is 3.42 PBM z-score against 500 random probes.
Same read-out and setting: as for B7, the figure is 3.48 PBM z-score against 500 random probes; as for B8, 3.34 PBM z-score against 500 random probes.
Same read-out and setting: as for B9, the figure is 3.45 PBM z-score against 500 random probes.
B10: the binding signal was 3.07 PBM z-score against 500 random probes.
For the molecule B11, the binding signal is 3.15 PBM z-score against 500 random probes.
Still for that read-out and setting: under B12 stands 3.29 PBM z-score against 500 random probes; under B2, -0.55 PBM z-score against 500 random probes; under B3, -0.43 PBM z-score against 500 random probes.
On the same count and under the same terms, as for B13, the figure is 3.18 PBM z-score against 500 random probes; as for B14, 3.03 PBM z-score against 500 random probes; as for B15, 3.26 PBM z-score against 500 random probes.
As to B16, the binding signal is -0.46 PBM z-score against 500 random probes.
Same read-out and setting: under B17 stands 7.78 PBM z-score against 500 random probes.
Same read-out and setting: as for B18, the figure is 3.09 PBM z-score against 500 random probes; as for B19, 3 PBM z-score against 500 random probes.
On the same count and under the same terms, as for B20, the figure is 4.17 PBM z-score against 500 random probes; as for B21, 3.39 PBM z-score against 500 random probes; as for B22, 3.31 PBM z-score against 500 random probes.
As for B23, the binding signal was 0.49 PBM z-score against 500 random probes.
For B24, the binding signal was 0.31 PBM z-score against 500 random probes.
The same measure, in the same setting: under B4 stands 7.79 PBM z-score against 500 random probes.
B25: the binding signal is 7.9 PBM z-score against 500 random probes.
Same read-out and setting: under B26 stands 3.23 PBM z-score against 500 random probes.
On the same count and under the same terms, as for B5, the figure is -0.44 PBM z-score against 500 random probes.

The next series deals with PPARa:RXRa (Homo sapiens, UniProt Q07869;P19793 full;full). The description is as above. To be noted: tags: GST kept;His cleaved; copies: 1;1; label: surface-attached array probe. In short, it runs like this:
as §1
Consider B16, for which the binding signal is -0.77 PBM z-score against 500 random probes.
On the same count and under the same terms, as for B17, the figure is 6.51 PBM z-score against 500 random probes.
In the case of B20, the binding signal was 3.44 PBM z-score against 500 random probes.
Regarding B24, the binding signal was 0.45 PBM z-score against 500 random probes.
The same measure, in the same setting: as for B25, the figure is 6.53 PBM z-score against 500 random probes.

The target in the next series is RARb:RXRa (Homo sapiens, UniProt P10826;P19793 full;full). Described as above. As to conditions: tags: His kept;His cleaved; copies: 1;1; label: surface-attached array probe. Put shortly: as §1
Sequence of RARb:RXRa (P10826 whole entry, chain 1 of 2): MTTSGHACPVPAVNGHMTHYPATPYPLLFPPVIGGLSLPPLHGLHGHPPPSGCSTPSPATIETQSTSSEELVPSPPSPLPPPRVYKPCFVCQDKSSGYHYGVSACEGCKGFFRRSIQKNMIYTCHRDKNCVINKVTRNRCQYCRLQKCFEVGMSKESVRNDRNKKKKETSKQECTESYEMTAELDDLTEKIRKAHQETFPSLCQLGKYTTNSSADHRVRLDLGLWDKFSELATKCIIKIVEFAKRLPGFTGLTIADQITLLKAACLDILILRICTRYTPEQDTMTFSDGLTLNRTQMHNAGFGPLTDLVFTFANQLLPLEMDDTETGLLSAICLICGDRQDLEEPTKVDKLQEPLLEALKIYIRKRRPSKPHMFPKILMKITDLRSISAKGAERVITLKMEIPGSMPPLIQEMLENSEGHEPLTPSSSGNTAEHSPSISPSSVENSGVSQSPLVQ
Sequence of RARb:RXRa (P19793 whole entry, chain 2 of 2): as the sequence (P19793 whole entry, chain 2 of 2) above
With B27, the binding signal is 6.08 PBM z-score against 500 random probes.
